Results published in article doi:10.1101/869594 (bioRxiv, 2019).
Values joined by “and” are separate entries in the source; they are usually repeats but may differ in a detail not shown here. Identical values can stand only once.

Target: the molecule itself
Assay: crystal structure

B1: N-terminal membrane anchoring domain of mycobacterial Wag31 (domain or fragment)
chain: PLTPADVHNVAFSKPPIGKRGYNEDEVDAFLDLVENELTRLIEENSDLRQRINELDQEL
  stoichiometry N: 2 and 4
